The target in assay [1] is T1, human TIGIT expressed on cells (human, UniProt Q495A1 22-244).
T1 construct: whole, on cells; on Jurkat E6.1 cells transduced with human TIGIT, on Promega TIGIT Effector cells or on human primary T cells; the assay field says which; also called hTIGIT; Jurkat-hTIGIT
T1 sequence (looked up): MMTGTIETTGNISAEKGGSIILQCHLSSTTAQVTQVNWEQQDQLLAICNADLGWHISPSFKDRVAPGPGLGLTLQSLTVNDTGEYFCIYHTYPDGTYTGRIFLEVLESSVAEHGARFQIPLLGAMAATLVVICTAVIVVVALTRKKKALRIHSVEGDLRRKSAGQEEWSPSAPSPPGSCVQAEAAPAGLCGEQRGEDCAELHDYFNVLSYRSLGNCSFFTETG
Description: flow cytometry, 100 nM Ab, Jurkat-hTIGIT vs untransfected. Here is the method:
(§1) Antibodies were incubated with the cells for 20 min at 4° C. in FACS buffer. […] Geometric mean fluorecence intensity was analysed using LSR BD Fortessa. Cell binding was recorded as the median florescence intensity of PE on the transfected line compared to the un-transfected line for each antibody (Table 3).

Assay [2] concerns the target T1, human TIGIT expressed on cells. Description: cell-based or functional assay.
Assay [3] deals with T2, mouse TIGIT expressed on cells (mouse, UniProt P86176 29-249).
T2 construct: whole, on cells; on Jurkat cells engineered to express mouse TIGIT; also called mTIGIT; Jurkat-mTIGIT
T2 sequence (looked up): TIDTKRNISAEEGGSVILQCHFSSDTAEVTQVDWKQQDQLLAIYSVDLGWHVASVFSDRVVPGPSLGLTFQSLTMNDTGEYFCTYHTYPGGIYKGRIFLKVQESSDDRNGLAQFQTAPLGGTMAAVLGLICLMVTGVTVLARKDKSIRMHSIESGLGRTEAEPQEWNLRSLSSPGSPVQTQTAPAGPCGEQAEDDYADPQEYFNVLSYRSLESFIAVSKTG
Description: flow cytometry, 100 nM Ab, Jurkat-mTIGIT vs untransfected. On the procedure: as §1

The target in the next assay is T3, Human TIGIT-Fc (human, UniProt Q495A1 22-141).
T3 construct: bought (Creative Biomart); also called TIGIT-Fc antigen; TIGIT-Fc fusion antigen; not shown: Fc part
T3 sequence (looked up): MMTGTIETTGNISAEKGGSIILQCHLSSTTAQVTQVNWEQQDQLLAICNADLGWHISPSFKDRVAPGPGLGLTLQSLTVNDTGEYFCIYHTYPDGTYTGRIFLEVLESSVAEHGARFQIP
Description: ForteBio BLI, IgG KD, avid. Here is the method:
Briefly, ForteBio affinity measurements were performed by loading IgGs on-line onto AHQ sensors. Sensors were equilibrated off-line in assay buffer for 30 min and then monitored on-line for 60 seconds for baseline establishment. Sensors with loaded IgGs were exposed to 100 nM antigen (human TIGIT-Fc, human TIGIT-His or cyno TIGIT-Fc) for 5 minutes, afterwards they were transferred to assay buffer for 5 min for off-rate measurement. Kinetics were analyzed using the 1:1 binding model.

Another assay addresses T4, Human TIGIT-His (human, UniProt Q495A1 22-141, biotinylated in the ForteBio Fab assay).
T4 construct: bought (Creative Biomart); also called Biotinylated Human TIGIT HIS; TIGIT-His monomer; not shown: His tag
T4 sequence (looked up): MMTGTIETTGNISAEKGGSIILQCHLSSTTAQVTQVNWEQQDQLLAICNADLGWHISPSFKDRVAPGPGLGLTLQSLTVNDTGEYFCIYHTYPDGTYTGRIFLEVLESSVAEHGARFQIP
Description: ForteBio BLI, Fab KD, monovalent.

A further assay deals with T5, Cyno TIGIT-Fc (cynomolgus, UniProt A0A7N9I9V4 89-209).
T5 construct: not shown: Fc part
T5 sequence (A0A7N9I9V4 entry or part of it): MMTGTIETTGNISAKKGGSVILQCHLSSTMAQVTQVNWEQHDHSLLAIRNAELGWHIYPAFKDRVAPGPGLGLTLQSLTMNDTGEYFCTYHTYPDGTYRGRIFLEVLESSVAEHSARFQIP
Description: ForteBio BLI, Fab KD, monovalent.

Assay [4] addresses T1, human TIGIT expressed on cells. Description: cell-based or functional assay. The source holds these as a separate data set.

B1: anti-TIGIT antibody clone 26521 (IgG) (antibody, V domains shown)
VH: QVQLVQSGAEVKKPGSSVKVSCKASGGTFSSYAISWVRQAPGQGLEWMGGIIPIFGTANYAQKFQGRVTITADESTSTAYMELSSLRSEDTAVYYCARLHLGSSAYYGMDVWGQGTTVTVSS
VL: DIQMTQSPSSLSASVGDRVTITCRASQSISSYLNWYQQKPGKAPKLLIYAASSLQSGVPSRFSGSGSGTDFTLTISSLQPEDFATYYCQQRYVFPPTFGGGTKVEIK
notes: parent clone
Consider B1, for which the “FON (Fold Over Negative)” value worked out at 146 fold in assay [1] and 218 fold in assay [3]. In addition, the “Induction over Isotype control (fold change), luciferase, Jurkat-hTIGIT + CHO-TCR-CD155, 133 nM” value in assay [2] was found to be 2.66 fold. In the assay with Human TIGIT-Fc, this molecule gave a Kd of 0.541 nM.

B2: Fab of anti-TIGIT clone 26521 (Fab, V domains shown)
VH: QVQLVQSGAEVKKPGSSVKVSCKASGGTFSSYAISWVRQAPGQGLEWMGGIIPIFGTANYAQKFQGRVTITADESTSTAYMELSSLRSEDTAVYYCARLHLGSSAYYGMDVWGQGTTVTVSS
VL: DIQMTQSPSSLSASVGDRVTITCRASQSISSYLNWYQQKPGKAPKLLIYAASSLQSGVPSRFSGSGSGTDFTLTISSLQPEDFATYYCQQRYVFPPTFGGGTKVEIK
As to B2, the Kd worked out at 9.87 nM with Human TIGIT-His and 149 nM in the assay with Cyno TIGIT-Fc.

B3: anti-TIGIT antibody clone 26432 (IgG) (antibody, V domains shown)
VH: QVQLVQSGAEVKKPGSSVKVSCKASGGTFSSYAISWVRQAPGQGLEWMGGIIPIFGTANYAQKFQGRVTITADESTSTAYMELSSLRSEDTAVYYCAREAQSYRVPFDIWGQGTMVTVSS
VL: EIVMTQSPATLSVSPGERATLSCRASQSVSSNLAWYQQKPGQAPRLLIYGASTRATGIPARFSGSGSGTEFTLTISSLQSEDFAVYYCQQYAIWPPFTFGGGTKVEIK
notes: also called parental clone 26432
B3: binding with Human TIGIT-Fc was put at a Kd of 4.62 nM.

B4: anti-TIGIT antibody clone 26518 (IgG) (antibody, V domains shown)
VH: EVQLVESGGGLVQPGGSLRLSCAASGFTFSSYGMSWVRQAPGKGLEWVANIKQDGSEKYYVDSVKGRFTISRDNAKNSLYLQMNSLRAEDTAVYYCARVSYYYDSSKLRWAEYFQHWGQGTLVTVSS
VL: EIVLTQSPATLSLSPGERATLSCRASQSVSSYLAWYQQKPGQAPRLLIYDASKRATGIPARFSGSGSGTDFTLTISSLEPEDFAVYYCQQVHNFPLTFGGGTKVEIK
notes: parent clone
In the case of B4, the “FON (Fold Over Negative)” value in assay [1] turned out to be 154 fold; in assay [3], 233 fold. In addition, the “Induction over Isotype control (fold change), luciferase, Jurkat-hTIGIT + CHO-TCR-CD155, 133 nM” value in assay [2] is 2.89 fold. Moreover, in the assay with Human TIGIT-Fc, the affinity, expressed as Kd, was 0.63 nM.

B5: anti-TIGIT antibody clone 29478 (IgG) (antibody, V domains shown)
VH: EVQLVESGGGVVQPGRSLRLSCAASGFTFESYGMVWVRQAPGKGLEWVASILYDGSNRYYADSVKGRFTVSRDNSKNTLYLQMNSLRAEDTAVYYCARVSYYYDSVELRWAEYFQHWGQGTLVTVSS
VL: EIVLTQSPATLSLSPGERATLSCRASQSVSSYLAWYQQKPGQAPRLLIYDASKRATGIPARFSGSGSGTDFTLTISSLEPEDFAVYYCQQVHNFPLTFGGGTKVEIK
As for B5, the figures for the “FON (Fold Over Negative)” value in assay [1] and in assay [3] were 182 fold and 500 fold, respectively. In assay [2], the “Induction over Isotype control (fold change), luciferase, Jurkat-hTIGIT + CHO-TCR-CD155, 133 nM” value was found to be 3.57 fold. In the assay with Human TIGIT-Fc, the Kd was 0.527 nM.

B6: Fab of anti-TIGIT clone 26518 (Fab, V domains shown)
VH: EVQLVESGGGLVQPGGSLRLSCAASGFTFSSYGMSWVRQAPGKGLEWVANIKQDGSEKYYVDSVKGRFTISRDNAKNSLYLQMNSLRAEDTAVYYCARVSYYYDSSKLRWAEYFQHWGQGTLVTVSS
VL: EIVLTQSPATLSLSPGERATLSCRASQSVSSYLAWYQQKPGQAPRLLIYDASKRATGIPARFSGSGSGTDFTLTISSLEPEDFAVYYCQQVHNFPLTFGGGTKVEIK
Regarding B6, the Kd came out at 1.24 nM with Human TIGIT-His and 4.47 nM in the assay with Cyno TIGIT-Fc.

B7: anti-TIGIT antibody clone 32919 (IgG) (antibody, V domains shown)
VH: QLQLQESGPGLVKPSETLSLTCTVSGGSISSGSYYLAWIRQPPGKGLEWIGSIFRSGSTYYNPSLESRVTISVDTSKNQFSLKLSSVTAADTAVYYCAIEGANFKDFGYVAFDIWGQGTTVTVSS
VL: EIVLTQSPATLSLSPGERATLSCRASQSVSSYLAWYQQKPGQAPRLLIYDASNRATGIPARFSGSGSGTDFTLTISSLEPEDFAVYYCQQENPRPRTFGGGTKVEIK
notes: human IgG; light chain optimised from 31288
With B7, in assay [4], the “EC50 of Jurkat-hTIGIT cell activation (luciferase), FIG. 12B” value came to 2.7 nM. The “FON (Fold Over Negative)” value in assay [1] amounted to 680 fold.

B8: Fab of anti-TIGIT clone 31288 (Fab, V domains shown)
VH: QLQLQESGPGLVKPSETLSLTCTVSGGSISSGSYYLAWIRQPPGKGLEWIGSIFRSGSTYYNPSLESRVTISVDTSKNQFSLKLSSVTAADTAVYYCAIEGANFKDFGYVAFDIWGQGTTVTVSS
VL: EIVMTQSPATLSVSPGERATLSCRASQSVSSNLAWYQQKPGQAPRLLIYGASTRATGIPARFSGSGSGTEFTLTISSLQSEDFAVYYCQQSPPWPRTFGGGTKVEIK
notes: Fab
For the molecule B8, the results for the Kd with Human TIGIT-His and in the assay with Cyno TIGIT-Fc were 2.09 nM and 25.1 nM, respectively.

B9: anti-TIGIT antibody clone 26486 (IgG) (antibody, V domains shown)
VH: QVQLQESGPGLVKPSETLSLTCAVSGYSISSGYYWAWIRQPPGKGLEWIGSIYHSGSTYYNPSLKSRVTISVDTSKNQFSLKLSSVTAADTAVYYCAIEGANYYDFGYVAFDIWGQGTMVTVSS
VL: EIVMTQSPATLSVSPGERATLSCRASQSVSSNLAWYQQKPGQAPRLLIYGASTRATGIPARFSGSGSGTEFTLTISSLQSEDFAVYYCQQSPPWPRTFGGGTKVEIK
notes: parent clone
In the case of B9, the “FON (Fold Over Negative)” value in assay [1] turned out to be 143 fold; in assay [3], 199 fold. Moreover, the “Induction over Isotype control (fold change), luciferase, Jurkat-hTIGIT + CHO-TCR-CD155, 133 nM” value in assay [2] was 1.9 fold. The dissociation constant Kd in the assay with Human TIGIT-Fc stood at 0.589 nM.

B10: Fab of anti-TIGIT clone 26486 (Fab, V domains shown)
VH: QVQLQESGPGLVKPSETLSLTCAVSGYSISSGYYWAWIRQPPGKGLEWIGSIYHSGSTYYNPSLKSRVTISVDTSKNQFSLKLSSVTAADTAVYYCAIEGANYYDFGYVAFDIWGQGTMVTVSS
VL: EIVMTQSPATLSVSPGERATLSCRASQSVSSNLAWYQQKPGQAPRLLIYGASTRATGIPARFSGSGSGTEFTLTISSLQSEDFAVYYCQQSPPWPRTFGGGTKVEIK
Molecule B10 gave a dissociation constant Kd with Human TIGIT-His of 21.9 nM. Moreover, the binding result in the assay with Cyno TIGIT-Fc is given as “no binding”.

B11: Fab of anti-TIGIT clone 32931 (Fab, V domains shown)
VH: QLQLQESGPGLVKPSETLSLTCTVSGGSISSGSYYLAWIRQPPGKGLEWIGSIFRSGSTYYNPSLESRVTISVDTSKNQFSLKLSSVTAADTAVYYCAIEGANFKDFGYVAFDIWGQGTTVTVSS
VL: EIVMTQSPATLSVSPGERATLSCRASKSVSSNLAWYQQKPGQAPRLLIYFASTRATGIPARFSGSGSGTEFTLTISSLQSEDFAVYYCQQTSPWPRTFGGGTKVEIK
notes: Fab
In the case of B11, the Kd came to 1.18 nM with Human TIGIT-His and 1.97 nM in the assay with Cyno TIGIT-Fc.

B12: anti-TIGIT antibody clone 32931 (IgG) (antibody, V domains shown)
VH: QLQLQESGPGLVKPSETLSLTCTVSGGSISSGSYYLAWIRQPPGKGLEWIGSIFRSGSTYYNPSLESRVTISVDTSKNQFSLKLSSVTAADTAVYYCAIEGANFKDFGYVAFDIWGQGTTVTVSS
VL: EIVMTQSPATLSVSPGERATLSCRASKSVSSNLAWYQQKPGQAPRLLIYFASTRATGIPARFSGSGSGTEFTLTISSLQSEDFAVYYCQQTSPWPRTFGGGTKVEIK
notes: as for B7
In the case of B12, the “EC50 of Jurkat-hTIGIT cell activation (luciferase), FIG. 12B” value in assay [4] was found to be 3.2 nM. Further, the “FON (Fold Over Negative)” value in assay [1] came out at 741 fold.

B13: Fab of anti-TIGIT clone 32919 (Fab, V domains shown)
VH: QLQLQESGPGLVKPSETLSLTCTVSGGSISSGSYYLAWIRQPPGKGLEWIGSIFRSGSTYYNPSLESRVTISVDTSKNQFSLKLSSVTAADTAVYYCAIEGANFKDFGYVAFDIWGQGTTVTVSS
VL: EIVLTQSPATLSLSPGERATLSCRASQSVSSYLAWYQQKPGQAPRLLIYDASNRATGIPARFSGSGSGTDFTLTISSLEPEDFAVYYCQQENPRPRTFGGGTKVEIK
notes: Fab
For the molecule B13, the Kd is 1.42 nM with Human TIGIT-His and 6.57 nM with Cyno TIGIT-Fc.
